Results on three molecules are retold here after article PMC9537594.

As usually defined, the Kd is the free concentration of one partner at which half of the binding sites on the other are occupied at equilibrium, for simple one-to-one binding. The low end stands for higher affinity, the high end for lower affinity.

Experiment [1] has as its target cross-linked His-CAhex, 6-His-CA(A14C/E45C/W184A/M185A) (HIV-1). As to the kind of experiment: SPR; Reichert 4-SPR; cross-linked His-CAhex immobilised on an NTA chip via the C-terminal His-tag; peptides 3.9 µM to 2 mM; 0.01 M HEPES pH 7.4, 0.15 M NaCl, 0.05% Surfactant P20; Scrubber 2.0, simple kinetic model. (SPR reads the build-up and loss of mass on a sensor chip optically.)

In experiment [2] the target is Cross-linked His-CAhex: disulfide-stabilized hexamer of 6-His-CA(A14C/E45C/W184A/M185A) (HIV-1). The experiment can be described thus: SPR; Reichert 4-SPR; cross-linked His-CAhex immobilised on an NTA chip via the C-terminal His-tag; peptides 3.9 μM to 2 mM; 0.01 M HEPES pH 7.4, 0.15 M NaCl, 0.05% v/v Surfactant P20; simple kinetic model.

On to GPLLPGQSFGGPSVS [SEC24C228-242 peptide], for which the Kd in experiment [1] turned out to be 1070 µM.

In experiment [2], GPLLPGQSFGGPSVS [SEC24C_(228-242) 15-mer FG peptide] came in with a Kd of 1.07 mM.

With NSPSGVFTFGANSST [NUP1531409-1423 peptide], in experiment [1], the Kd worked out at 131 µM.
